Assay results reported in publication PMC11865535 (Nature Communications, 2025).

Target: CUL1^FlAsH preassembled with SKP1·SKP2 (UniProt Q13616;P62877;P63208;Q13309, FlAsH fluorophore on the C-terminal tetracysteine tag)
Test: FRET or BRET

Sequence of CUL1^FlAsH preassembled with SKP1·SKP2 (Q13616 whole entry, chain 1 of 3): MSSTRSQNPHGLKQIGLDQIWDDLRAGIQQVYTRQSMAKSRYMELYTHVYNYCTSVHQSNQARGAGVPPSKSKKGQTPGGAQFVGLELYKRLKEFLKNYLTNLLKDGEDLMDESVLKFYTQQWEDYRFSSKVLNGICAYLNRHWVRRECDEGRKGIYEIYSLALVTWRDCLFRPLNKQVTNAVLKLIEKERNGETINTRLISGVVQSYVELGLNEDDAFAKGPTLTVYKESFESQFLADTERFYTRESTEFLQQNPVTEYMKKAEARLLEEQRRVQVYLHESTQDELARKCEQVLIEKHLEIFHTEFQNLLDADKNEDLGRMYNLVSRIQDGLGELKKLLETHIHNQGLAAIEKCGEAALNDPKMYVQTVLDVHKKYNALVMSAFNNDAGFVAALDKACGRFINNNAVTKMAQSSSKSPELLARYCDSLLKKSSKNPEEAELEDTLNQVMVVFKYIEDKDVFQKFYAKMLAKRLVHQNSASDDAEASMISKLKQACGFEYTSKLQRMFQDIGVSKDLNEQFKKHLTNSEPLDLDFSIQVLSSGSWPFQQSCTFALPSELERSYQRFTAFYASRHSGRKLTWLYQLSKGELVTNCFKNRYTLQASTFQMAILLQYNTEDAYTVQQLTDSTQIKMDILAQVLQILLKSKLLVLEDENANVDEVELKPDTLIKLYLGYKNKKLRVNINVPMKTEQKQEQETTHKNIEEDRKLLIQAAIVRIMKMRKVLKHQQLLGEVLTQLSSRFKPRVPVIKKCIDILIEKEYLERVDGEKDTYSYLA
Sequence of CUL1^FlAsH preassembled with SKP1·SKP2 (P63208 whole entry, chain 3 of 3): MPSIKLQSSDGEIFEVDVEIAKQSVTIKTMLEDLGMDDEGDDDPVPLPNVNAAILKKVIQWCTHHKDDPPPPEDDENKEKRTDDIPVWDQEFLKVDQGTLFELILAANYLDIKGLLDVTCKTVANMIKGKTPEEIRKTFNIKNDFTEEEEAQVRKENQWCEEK
Sequence of CUL1^FlAsH preassembled with SKP1·SKP2 (Q13309 whole entry, chain 4 of 3): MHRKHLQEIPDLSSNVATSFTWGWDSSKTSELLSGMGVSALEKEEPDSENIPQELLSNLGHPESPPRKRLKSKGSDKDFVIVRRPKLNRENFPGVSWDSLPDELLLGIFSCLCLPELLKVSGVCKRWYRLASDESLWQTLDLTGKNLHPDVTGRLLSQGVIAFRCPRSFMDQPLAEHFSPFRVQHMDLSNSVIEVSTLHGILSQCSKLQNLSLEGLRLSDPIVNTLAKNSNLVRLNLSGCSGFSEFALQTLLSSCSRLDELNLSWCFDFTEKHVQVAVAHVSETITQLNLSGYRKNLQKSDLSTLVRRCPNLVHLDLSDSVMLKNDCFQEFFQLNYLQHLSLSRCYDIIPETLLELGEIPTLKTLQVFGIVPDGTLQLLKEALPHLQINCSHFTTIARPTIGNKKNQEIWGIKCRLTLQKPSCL

koff [s⁻¹]	Binder
4.4	^CFPCAND2 (natural protein) MSTAAFHISSLLEKMTSSDKDFRFMATSDLMSELQKDSIQLDEDSERKVVKMLLRLLEDKNGEVQNLAVKCLGPLVVKVKEYQVETIVDTLCTNMRSDKEQLRDIAGIGLKTVLSELPPAATGSGLATNVCRKITGQLTSAIAQQEDVAVQLEALDILSDMLSRLGVPLGAFHASLLHCLLPQLSSPRLAVRKRAVGALGHLAAACSTDLFVELADHLLDRLPGPRVPTSPTAIRTLIQCLGSVGRQAGHRLGAHLDRLVPLVEDFCNLDDDELRESCLQAFEAFLRKCPKEMGPHVPNVTSLCLQYIKHDPNYNYDSDEDEEQMETEDSEFSEQESEDEYSDDDDMSWKVRRAAAKCIAALISSRPDLLPDFHCTLAPVLIRRFKEREENVKADVFTAYIVLLRQTQPPKGWLEAMEEPTQTGSNLHMLRGQVPLVVKALQRQLKDRSVRARQGCFSLLTELAGVLPGSLAEHMPVLVSGIIFSLADRSSSSTIRMDALAFLQGLLGTEPAEAFHPHLPILLPPVMACVADSFYKIAAEALVVLQELVRALWPLHRPRMLDPEPYVGEMSAVTLARLRATDLDQEVKERAISCMGHLVGHLGDRLGDDLEPTLLLLLDRLRNEITRLPAIKALTLVAVSPLQLDLQPILAEALHILASFLRKNQRALRLATLAALDALAQSQGLSLPPSAVQAVLAELPALVNESDMHVAQLAVDFLATVTQAQPASLVEVSGPVLSELLRLLRSPLLPAGVLAAAEGFLQALVGTRPPCVDYAKLISLLTAPVYEQAVDGGPGLHKQVFHSLARCVAALSAACPQEAASTASRLVCDARSPHSSTGVKVLAFLSLAEVGQVAGPGHQRELKAVLLEALGSPSEDVRAAASYALGRVGAGSLPDFLPFLLEQIEAEPRRQYLLLHSLREALGAAQPDSLKPYAEDIWALLFQRCEGAEEGTRGVVAECIGKLVLVNPSFLLPRLRKQLAAGRPHTRSTVITAVKFLISDQPHPIDPLLKSFIGEFMESLQDPDLNVRRATLAFFNSAVHNKPSLVRDLLDDILPLLYQETKIRRDLIREVEMGPFKHTVDDGLDVRKAAFECMYSLLESCLGQLDICEFLNHVEDGLKDHYDIRMLTFIMVARLATLCPAPVLQRVDRLIEPLRATCTAKVKAGSVKQEFEKQDELKRSAMRAVAALLTIPEVGKSPIMADFSSQIRSNPELAALFESIQKDSASAPSTDSMELS
2.5	^CFPCAND1 (natural protein) MASASYHISNLLEKMTSSDKDFRFMATNDLMTELQKDSIKLDDDSERKVVKMILKLLEDKNGEVQNLAVKCLGPLVSKVKEYQVETIVDTLCTNMLSDKEQLRDISSIGLKTVIGELPPASSGSALAANVCKKITGRLTSAIAKQEDVSVQLEALDIMADMLSRQGGLLVNFHPSILTCLLPQLTSPRLAVRKRTIIALGHLVMSCGNIVFVDLIEHLLSELSKNDSMSTTRTYIQCIAAISRQAGHRIGEYLEKIIPLVVKFCNVDDDELREYCIQAFESFVRRCPKEVYPHVSTIINICLKYLTYDPNYNYDDEDEDENAMDADGGDDDDQGSDDEYSDDDDMSWKVRRAAAKCLDAVVSTRHEMLPEFYKTVSPALISRFKEREENVKADVFHAYLSLLKQTRPVQSWLCDPDAMEQGETPLTMLQSQVPNIVKALHKQMKEKSVKTRQCCFNMLTELVNVLPGALTQHIPVLVPGIIFSLNDKSSSSNLKIDALSCLYVILCNHSPQVFHPHVQALVPPVVACVGDPFYKITSEALLVTQQLVKVIRPLDQPSSFDATPYIKDLFTCTIKRLKAADIDQEVKERAISCMGQIICNLGDNLGSDLPNTLQIFLERLKNEITRLTTVKALTLIAGSPLKIDLRPVLGEGVPILASFLRKNQRALKLGTLSALDILIKNYSDSLTAAMIDAVLDELPPLISESDMHVSQMAISFLTTLAKVYPSSLSKISGSILNELIGLVRSPLLQGGALSAMLDFFQALVVTGTNNLGYMDLLRMLTGPVYSQSTALTHKQSYYSIAKCVAALTRACPKEGPAVVGQFIQDVKNSRSTDSIRLLALLSLGEVGHHIDLSGQLELKSVILEAFSSPSEEVKSAASYALGSISVGNLPEYLPFVLQEITSQPKRQYLLLHSLKEIISSASVVGLKPYVENIWALLLKHCECAEEGTRNVVAECLGKLTLIDPETLLPRLKGYLISGSSYARSSVVTAVKFTISDHPQPIDPLLKNCIGDFLKTLEDPDLNVRRVALVTFNSAAHNKPSLIRDLLDTVLPHLYNETKVRKELIREVEMGPFKHTVDDGLDIRKAAFECMYTLLDSCLDRLDIFEFLNHVEDGLKDHYDIKMLTFLMLVRLSTLCPSAVLQRLDRLVEPLRATCTTKVKANSVKQEFEKQDELKRSAMRAVAALLTIPEAEKSPLMSEFQSQISSNPELAAIFESIQKDSSSTNLESMDTS
